Data reported in publication PMC9482650, “Quantitative fragmentomics allow affinity mapping of interactomes” (Nature Communications, 2022).

T1: APBA2_1, Q99767
T1 sequence (Q99767 563-664, limits assumed, looked up): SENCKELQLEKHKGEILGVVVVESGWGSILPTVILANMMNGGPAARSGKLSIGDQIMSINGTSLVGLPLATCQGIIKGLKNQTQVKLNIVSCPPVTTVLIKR

T2: APBA2_2, Q99767
T2 sequence (Q99767 654-744, limits assumed, looked up): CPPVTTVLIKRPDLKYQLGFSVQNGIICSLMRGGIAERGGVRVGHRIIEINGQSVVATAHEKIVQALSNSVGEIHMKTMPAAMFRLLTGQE

T3: CARD11, Q9BXL7
T3 sequence (Q9BXL7 662-765, limits assumed, looked up): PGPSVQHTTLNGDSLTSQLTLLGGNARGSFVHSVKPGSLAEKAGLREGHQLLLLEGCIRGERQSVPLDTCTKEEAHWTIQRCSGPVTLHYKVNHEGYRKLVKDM

T4: DVL3, Q92997
T4 sequence (Q92997 244-331, limits assumed, looked up): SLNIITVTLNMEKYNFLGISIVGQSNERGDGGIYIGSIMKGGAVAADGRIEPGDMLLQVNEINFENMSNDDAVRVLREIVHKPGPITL

T5: FRMPD1, Q5SYB0
T5 sequence (Q5SYB0 52-145, limits assumed, looked up): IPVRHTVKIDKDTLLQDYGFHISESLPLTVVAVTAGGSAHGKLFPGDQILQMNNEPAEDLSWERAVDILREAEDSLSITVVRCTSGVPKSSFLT

T6: GRIP1_7, Q9Y3R0
T6 sequence (Q9Y3R0 999-1096, limits assumed, looked up): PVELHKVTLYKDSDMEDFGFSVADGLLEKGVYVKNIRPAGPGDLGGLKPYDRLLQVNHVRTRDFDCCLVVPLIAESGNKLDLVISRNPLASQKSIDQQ

T7: HTRA4, P83105
T7 sequence (P83105 378-476, limits assumed, looked up): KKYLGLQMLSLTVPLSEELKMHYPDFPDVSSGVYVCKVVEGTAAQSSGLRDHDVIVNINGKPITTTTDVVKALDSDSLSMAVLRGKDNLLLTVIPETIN

T8: LNX2_2, Q8N448
T8 sequence (Q8N448 334-432, limits assumed, looked up): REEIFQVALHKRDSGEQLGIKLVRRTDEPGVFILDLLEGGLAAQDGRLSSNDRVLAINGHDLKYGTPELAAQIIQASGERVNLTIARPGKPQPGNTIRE

T9: MPDZ_12, O75970
T9 sequence (O75970 1857-1958, limits assumed, looked up): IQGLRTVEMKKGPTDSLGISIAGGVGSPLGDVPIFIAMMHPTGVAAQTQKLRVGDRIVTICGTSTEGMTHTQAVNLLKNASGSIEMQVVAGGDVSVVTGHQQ

T10: MPP2, Q14168
T10 sequence (Q14168 180-250, limits assumed, looked up): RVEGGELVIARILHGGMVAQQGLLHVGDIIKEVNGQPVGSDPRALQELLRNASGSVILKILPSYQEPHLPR

T11: MPP7, Q5T2T1
T11 sequence (Q5T2T1 134-230, limits assumed, looked up): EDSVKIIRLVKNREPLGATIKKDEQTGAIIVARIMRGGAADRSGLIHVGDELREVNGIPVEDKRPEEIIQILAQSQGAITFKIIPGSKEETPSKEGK

T12: NHERF3_3, Q5T2W1
T12 sequence (Q5T2W1 238-333, limits assumed, looked up): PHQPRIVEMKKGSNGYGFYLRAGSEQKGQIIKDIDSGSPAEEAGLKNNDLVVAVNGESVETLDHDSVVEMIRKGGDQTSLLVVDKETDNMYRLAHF

T13: PDZD7_3, Q9H5P4
T13 sequence (Q9H5P4 857-944, limits assumed, looked up): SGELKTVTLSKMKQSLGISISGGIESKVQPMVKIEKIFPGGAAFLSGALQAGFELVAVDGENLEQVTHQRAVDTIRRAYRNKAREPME

T14: SNTG1, Q9NSN8
T14 sequence (Q9NSN8 52-150, limits assumed, looked up): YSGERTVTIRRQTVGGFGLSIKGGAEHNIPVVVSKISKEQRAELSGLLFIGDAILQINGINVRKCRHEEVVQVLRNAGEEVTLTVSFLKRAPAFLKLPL

T15: TIAM2, Q8IVF5
T15 sequence (Q8IVF5 885-986, limits assumed, looked up): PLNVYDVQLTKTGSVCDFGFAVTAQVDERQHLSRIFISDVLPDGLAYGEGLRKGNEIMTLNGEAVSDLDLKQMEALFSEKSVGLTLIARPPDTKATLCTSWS

B1: FAM167B, Q9BTA0 (peptide)
chain: NISARRFTLC
B2: CACNA1D, Q01668 (peptide)
chain: ADEMICITTL

The binders below were run against AHNAK1, Q09666 (assay: holdup assay). Details: plain residues with an end cap or a label only (N-terminal biotin on a linker: ado-ado).
AHNAK1, Q09666, sequence (Q09666 4-100): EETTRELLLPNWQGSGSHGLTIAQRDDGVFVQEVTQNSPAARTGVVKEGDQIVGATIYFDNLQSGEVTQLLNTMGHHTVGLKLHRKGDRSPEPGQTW
Set-up: key: below the threshold = too weak to quantify, mostly under pKd 3.1 to 4
In the case of B1, the pKd is reported as “below the threshold”. B2 was tested, and the pKd was “below the threshold”.

The binders below were run against T1, APBA2_1, Q99767 (assay: holdup assay). Details: plain residues with an end cap or a label only (N-terminal biotin on a linker: ado-ado).
Set-up: key: below the threshold = too weak to quantify, mostly under pKd 3.1 to 4
For B1, the pKd was “below the threshold”. B2 was tested, and the pKd was “below the threshold”.

What follows are binders tested against T2, APBA2_2, Q99767 (assay: holdup assay). Details: plain residues with an end cap or a label only (N-terminal biotin on a linker: ado-ado).
Set-up: key: below the threshold = too weak to quantify, mostly under pKd 3.1 to 4
B1 was tested, and the pKd was “below the threshold”. With B2 the pKd was “below the threshold”.

What follows are binders tested against ARHGEF12, Q9NZN5-2 (assay: holdup assay). Details: plain residues with an end cap or a label only (N-terminal biotin on a linker: ado-ado).
ARHGEF12, Q9NZN5-2, sequence (Q9NZN5 other isoform, or with tags, fused parts or gaps): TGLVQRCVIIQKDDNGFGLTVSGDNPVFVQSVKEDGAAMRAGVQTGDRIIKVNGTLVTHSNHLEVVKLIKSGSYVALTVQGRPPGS
Set-up: key: below the threshold = too weak to quantify, mostly under pKd 3.1 to 4
B1 showed a pKd of 4.13. Binder B2 has a pKd of 6.18.

These binders were tested against T3, CARD11, Q9BXL7 (assay: holdup assay). Details: plain residues with an end cap or a label only (N-terminal biotin on a linker: ado-ado).
Set-up: key: below the threshold = too weak to quantify, mostly under pKd 3.1 to 4
With B1 the pKd was “below the threshold”. With B2 the pKd was “below the threshold”.

Each binder was assayed against T4, DVL3, Q92997 (assay: holdup assay). Details: plain residues with an end cap or a label only (N-terminal biotin on a linker: ado-ado).
Set-up: key: below the threshold = too weak to quantify, mostly under pKd 3.1 to 4
With B1 the pKd was “below the threshold”. With B2 the pKd was “below the threshold”.

What follows are binders tested against T5, FRMPD1, Q5SYB0 (assay: holdup assay). Details: plain residues with an end cap or a label only (N-terminal biotin on a linker: ado-ado).
Set-up: key: below the threshold = too weak to quantify, mostly under pKd 3.1 to 4
B1 was tested, and the pKd was “below the threshold”. B2 was tested, and the pKd was “below the threshold”.

The binders below were run against T6, GRIP1_7, Q9Y3R0 (assay: holdup assay). Details: plain residues with an end cap or a label only (N-terminal biotin on a linker: ado-ado).
Set-up: key: below the threshold = too weak to quantify, mostly under pKd 3.1 to 4
For B1, the pKd was “below the threshold”. With B2 the pKd was “below the threshold”.

The binders below were run against GRIP2_3, Q9C0E4 (assay: holdup assay). Details: plain residues with an end cap or a label only (N-terminal biotin on a linker: ado-ado).
GRIP2_3, Q9C0E4, sequence (Q9C0E4 238-339): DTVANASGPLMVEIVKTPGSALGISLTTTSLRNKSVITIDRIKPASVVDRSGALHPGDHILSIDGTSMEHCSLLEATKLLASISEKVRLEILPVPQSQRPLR
Set-up: key: below the threshold = too weak to quantify, mostly under pKd 3.1 to 4
In the case of B1, the pKd is reported as “below the threshold”. With B2 the pKd was “below the threshold”.

What follows are binders tested against T7, HTRA4, P83105 (assay: holdup assay). Details: plain residues with an end cap or a label only (N-terminal biotin on a linker: ado-ado).
Set-up: key: below the threshold = too weak to quantify, mostly under pKd 3.1 to 4
In the case of B1, the pKd is reported as 4.55. In the case of B2, the pKd is reported as 4.36.

These binders were tested against Inadl_3, Q8NI35 (assay: holdup assay). Details: plain residues with an end cap or a label only (N-terminal biotin on a linker: ado-ado).
Inadl_3, Q8NI35, sequence (Q8NI35 359-469): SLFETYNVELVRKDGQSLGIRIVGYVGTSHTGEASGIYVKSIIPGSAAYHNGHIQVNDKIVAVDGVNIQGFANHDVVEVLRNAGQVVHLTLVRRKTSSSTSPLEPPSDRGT
Set-up: key: below the threshold = too weak to quantify, mostly under pKd 3.1 to 4
In the case of B1, the pKd is reported as “below the threshold”. Work on B2 yielded a pKd of 4.53.

Each binder was assayed against LIMK2, P53671 (assay: holdup assay). Details: plain residues with an end cap or a label only (N-terminal biotin on a linker: ado-ado).
LIMK2, P53671, sequence (P53671 143-248): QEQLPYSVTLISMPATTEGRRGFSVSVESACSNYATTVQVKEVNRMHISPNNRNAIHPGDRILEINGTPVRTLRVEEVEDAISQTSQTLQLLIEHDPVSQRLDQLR
Set-up: key: below the threshold = too weak to quantify, mostly under pKd 3.1 to 4
B1 was tested, and the pKd was “below the threshold”. B2 was tested, and the pKd was “below the threshold”.

These binders were tested against T8, LNX2_2, Q8N448 (assay: holdup assay). Details: plain residues with an end cap or a label only (N-terminal biotin on a linker: ado-ado).
Set-up: key: below the threshold = too weak to quantify, mostly under pKd 3.1 to 4
Binder B1 has a pKd of 5.39. With B2 the pKd was 3.93.

The binders below were run against MAST2, Q6P0Q8 (assay: holdup assay). Details: plain residues with an end cap or a label only (N-terminal biotin on a linker: ado-ado).
MAST2, Q6P0Q8, sequence (Q6P0Q8 1099-1202): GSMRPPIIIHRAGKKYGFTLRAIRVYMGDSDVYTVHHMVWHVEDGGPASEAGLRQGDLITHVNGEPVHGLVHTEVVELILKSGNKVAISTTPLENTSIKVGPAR
Set-up: key: below the threshold = too weak to quantify, mostly under pKd 3.1 to 4
B1 was tested, and the pKd was 4.89. B2 was tested, and the pKd was 5.76.

What follows are binders tested against T9, MPDZ_12, O75970 (assay: holdup assay). Details: plain residues with an end cap or a label only (N-terminal biotin on a linker: ado-ado).
Set-up: key: below the threshold = too weak to quantify, mostly under pKd 3.1 to 4
In the case of B1, the pKd is reported as 3.52. B2 gave a pKd of 4.02.

These binders were tested against T10, MPP2, Q14168 (assay: holdup assay). Details: plain residues with an end cap or a label only (N-terminal biotin on a linker: ado-ado).
Set-up: key: below the threshold = too weak to quantify, mostly under pKd 3.1 to 4
Work on B1 yielded a pKd of 3.82. In the case of B2, the pKd is reported as “below the threshold”.

These binders were tested against T11, MPP7, Q5T2T1 (assay: holdup assay). Details: plain residues with an end cap or a label only (N-terminal biotin on a linker: ado-ado).
Set-up: key: below the threshold = too weak to quantify, mostly under pKd 3.1 to 4
With B1 the pKd was “below the threshold”. In the case of B2, the pKd is reported as “below the threshold”.

Each binder was assayed against T12, NHERF3_3, Q5T2W1 (assay: holdup assay). Details: plain residues with an end cap or a label only (N-terminal biotin on a linker: ado-ado).
Set-up: key: below the threshold = too weak to quantify, mostly under pKd 3.1 to 4
With B1 the pKd was “below the threshold”. B2 was tested, and the pKd was “below the threshold”.

What follows are binders tested against T13, PDZD7_3, Q9H5P4 (assay: holdup assay). Details: plain residues with an end cap or a label only (N-terminal biotin on a linker: ado-ado).
Set-up: key: below the threshold = too weak to quantify, mostly under pKd 3.1 to 4
With B1 the pKd was 3.88. For B2, the pKd was 5.57.

What follows are binders tested against SCRIB_1, Q14160 (assay: holdup assay). Details: plain residues with an end cap or a label only (N-terminal biotin on a linker: ado-ado).
SCRIB_1, Q14160, sequence (Q14160 718-814): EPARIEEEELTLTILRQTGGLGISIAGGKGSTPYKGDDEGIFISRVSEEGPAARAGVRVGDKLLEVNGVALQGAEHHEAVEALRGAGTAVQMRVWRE
Set-up: key: below the threshold = too weak to quantify, mostly under pKd 3.1 to 4
With B1 the pKd was “below the threshold”. Binder B2 has a pKd of 4.89.

These binders were tested against T14, SNTG1, Q9NSN8 (assay: holdup assay). Details: plain residues with an end cap or a label only (N-terminal biotin on a linker: ado-ado).
Set-up: key: below the threshold = too weak to quantify, mostly under pKd 3.1 to 4
B1 was tested, and the pKd was 3.48. B2 gave a pKd of 4.32.

These binders were tested against T15, TIAM2, Q8IVF5 (assay: holdup assay). Details: plain residues with an end cap or a label only (N-terminal biotin on a linker: ado-ado).
Set-up: key: below the threshold = too weak to quantify, mostly under pKd 3.1 to 4
In the case of B1, the pKd is reported as “below the threshold”. In the case of B2, the pKd is reported as 4.19.

The binders below were run against TJP1_2, Q07157 (assay: holdup assay). Details: plain residues with an end cap or a label only (N-terminal biotin on a linker: ado-ado).
TJP1_2, Q07157, sequence (Q07157 181-274): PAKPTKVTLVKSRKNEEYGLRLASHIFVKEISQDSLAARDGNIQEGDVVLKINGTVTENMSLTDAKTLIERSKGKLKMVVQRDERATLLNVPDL
Set-up: key: below the threshold = too weak to quantify, mostly under pKd 3.1 to 4
B1 was tested, and the pKd was “below the threshold”. With B2 the pKd was “below the threshold”.
